In assay [1] the target is S. mansoni neuropeptide NPP2a, membrane-anchored ligand fusion (linker-WBP1 TMP-Cub-GAL4) (S. mansoni). Briefly: two-hybrid; MALAR-Y2H; β-galactosidase (ONPG) assay of diploid cells, lysate incubated 30 min at 30°C, OD405, Miller Units, mean of two clones.
The target of assay [2] is CXC-motif chemokine ligand 12 (CXCL12), membrane-anchored ligand fusion (Cub-GAL4). The assay is described as above.

Chain of mouse receptor CXCR4, NubG fusion (positive control) (P70658 whole entry, the tested form may be a part): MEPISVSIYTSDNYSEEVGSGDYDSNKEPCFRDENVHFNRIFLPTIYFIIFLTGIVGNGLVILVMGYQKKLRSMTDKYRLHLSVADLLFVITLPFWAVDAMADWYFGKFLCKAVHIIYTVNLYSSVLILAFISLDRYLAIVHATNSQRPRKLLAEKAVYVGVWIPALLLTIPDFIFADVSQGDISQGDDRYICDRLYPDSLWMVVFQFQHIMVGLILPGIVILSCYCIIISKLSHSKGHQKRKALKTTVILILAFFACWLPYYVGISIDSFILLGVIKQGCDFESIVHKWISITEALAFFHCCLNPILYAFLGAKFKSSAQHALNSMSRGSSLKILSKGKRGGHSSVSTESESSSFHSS

Substance “Schistosoma mansoni G protein-coupled receptor GPCR14 (Smp_203500), fused to NubG” yielded a Miller units (β-Gal activity) in assay [1] of 2.68 Miller units.
“mouse receptor CXCR4, NubG fusion (positive control)” yielded a Miller units (β-Gal activity) in assay [2] of 3.07 Miller units.

Values taken from PMC7284817.
